Assay results reported in the domain aggregation screens of Martell et al. (2025).

assay: soluble fraction after stress (log2 fold change); higher = more stays soluble; pooled small domains, quantitative proteomics; settings: stress: pH 4
Procedure, shortened: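 With high-throughput quantitative proteomics, pooled custom libraries of small protein domains were measured after pH 4 stress. Each domain's soluble amount after the stress gives a fold change taken as aggregation propensity. Higher log2 values mean more of the domain stayed soluble.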

Row | Sequence | soluble fraction (log2)
1 | HMAAADLNMRAKLADLGGMSYGELSIWEKTHGMEFAAWEHEWEKLNSGTQADGLKFPKHLPEGFPT | 0.116
2 | HMAAAKDVMDWQNAIRGLTDAKGKPYSPTYLKTVHNQLSALFNHAVRYYGLQVNPAAKAGNMGVEE | 0.00664
3 | HMAADDGSARAEQLREMYSLISGLDKLDKAIILMWLDERSYDEIAEVTGFTRNNVATRLHRIKSRLARQSN | -1.19
4 | HMAAEIGSGVVDAYDLRLRSQPSTDAETIIYLDNGAKLSVQEDLGDWYKVVSGTYTGYVSAEYVAYTPSPE | -1.7
5 | HMAAELHPYGADSYRGDNPPAGYEIKAKEESKKFHTPSSPWYGRTIAEIWFRTEEAAEAAGFINAVK | -0.272
6 | HMAAELQALSVRELEVLDQLAGGASNREIAQRLYISENTVRNHVHSILTKLKLQNRTQLVGMT | -0.705
7 | HMAAESWTEKSRALAAAGLVVMGRDAQTKIEELTNLAPLIEAANASNTRLLTSQSIDELLSIVPTEENL | -0.0379
8 | HMAAGKGVTTGSVRLRKGSNTDSAIIATLKKDTELILYGKKDGWYSVKTSDGTEGFVSSKYVKVTEAY | -0.297
9 | HMAAGLTPKQKAFADNYIKNGGNAAEAARAAGYSLKNVGANAGKLLKNPKIAAYIAEKQAELDRRNGT | -0.13
10 | HMAAINPSALREPATPPEQLSAGDSVLHPRFGRGEILELQQQGGDPRAIVQFINEPKPRTLVLRYAQLRK | 0.0977
11 | HMAAKADAVKKAIAAIGKVDASEDSKAKVEAARKAYAALTEDQKKLVEASQLKLLTEAEAAYQQAVEESKK | -0.0736
12 | HMAAMSLGERIGAHRKRMGISQEELGHRMGVSRQAVSKWETGRAVPDMENLLALARLFGVPVSELAD | -0.0628
13 | HMAAPVGLTQRQMEVAALVADGLTNAEIGRRLHITERSAESHLERVRIRLGFRSRAQVAAWFVTQE | -0.493
14 | HMAATHYEGIKQDGETDDAVIERVLTGLSVTANKDDIFIVKTLIAGTKYSYTAYVYNGNAWAAM | -0.255
15 | HMAATSTGFPGVEVRGNSIRVFFMYKRDRHAHTLPLEPTRNNIKHADQLRSAALFALRNGTYNEADFFPHS | -0.509
16 | HMAATVKVPDLTKMTPDEAQRALGQVGLKGKQGDDVDDDSVPVGYIAKQDEAPNSDAKAGDTITYHL | 0.171
17 | HMAAVSSHAVKQRIRSLIQAEDPASPLSDEALRLALSALGVEVSRRAVAKYRTSMDIPASSQRKK | 0.238
18 | HMADEDTILALAKEILASWPDKVEAYKNGNKGMLGLFMGELMKKSGGKANPKSASALIQKLLE | -0.231
19 | HMADEIQLVVQVNGKLRGRIMVAPDASREEIEKTALADADVSRFLGDTPVKKVIIVPKRLVNIVAPAPK | 0.0692
20 | HMADENIELRKAGLKVTLPRVKILQILEAAKEPHMSAEDVYKALMEANEEVGLATVYRVLTQFESAGL | -0.232
21 | HMADGKWTLTDAGYTFTYSDGRKARGTWEDIDGEWYHFDRNGIMETGWKTVGNIRYHFNQDGSL | -0.363
22 | HMADIGRMKELIDILNRASAVYYQGKDEIMSNFEYDKLYDELVSLEKESGLVLAGSPTQKVGY | -0.0716
23 | HMADKHVAAALLKLMDHLVGGRQYAFMKGRLTINKKVVLEATEVSAYRRGTGLSDADWQQRYE | -0.978
24 | HMADLKRLNEQIHYLGQYLSTKATYKEFLQANNKKIYRSEHQDEIAKYEEAAQFLKRSSPDGTIPTMKDLR | 0.0861
25 | HMADLSAYAGKEGMTDSVLRPSGKVDIEGHILDAVSRGDFIEKGKRVIVIKAEGSYLVVKKRMP | 0.166
26 | HMADLTEEQKTLFRLIRDLQPVSSKTLLENSGFTRSTQTRLLNGLIEKQIVIRTGNGPATRYSLR | -0.307
27 | HMADLTIDGVEYTKVSPTGTLTLEKVYTKNVTPADGQYYIQTGTKTVRVATDAEVAVIKAGGF | 0.247
28 | HMADNKDMQAAFMEALNGLKEYAKVNGNIVTKEDVNSYFKDMHLDDNKYSMITGYLMANGITIKG | -0.432

Row | Sequence | soluble fraction (log2)
29 | HMADPRFHSEIMLSKIESLLSGKADSDVSNYSIQGRSLTKMSLQELMDARESYDGLVKSEKAKLDAKY | -0.218
30 | HMADPVTPQDLIRWSEALAGIARTGLGFTQSLYEQERFEEVLAVAADMRVAAGSSYNPDDLVHEWMKSVG | -0.34
31 | HMADQVVGQLGMVTQRIDNLQQTGRVSANGLDWAARSENGQPIPQGMPVEVLRIEGVKLIVRPVN | -0.00119
32 | HMADTIEVVVQVNGKVRAKISTSPEVFADSTKLQELALADANVQKFIAGQTIRKVIIPKGTKLLNIV | -0.55
33 | HMADTSPEGVQKLIKAFEQFGVSKDDIEGFIQRRVDAITPANVVSLRKIFTSLRDGMSSAKDWFKGA | -0.325
34 | HMADVIKLVNTSVLNVRSGAGINYSKIGSLTQGTKVNIISESNGWSKINYNGKIGYISSQYVSEVS | 0.324
35 | HMADVLLKHGSSGDYVWDLQYRLKTLSLFDQEMTGYFGPHTRQAVVNFQRKYGLPADGVVGPATWRALRK | -0.551
36 | HMADVPSTIFEAYRILGLNPEAPPVAVKKVVDALRMSWHPDHARSEPDRRHREERIKQINAAWDLLKGV | -0.128
37 | HMADVYFDGKFLGETPVTVAVSTTGKPAHEISLIRGGYEPWSTTYQGNPRPGQTATVMAILVHA | -0.121
38 | HMAEAAVELSQQILARLLEAGGSLPLSDKSSPEDIHRLFGVSKRTFKKAIGGLYKKGLILIHPERIELP | -0.0448
39 | HMAEAETVKFVGNSLLLVSGAAKGERLSVYTVGGQHVLSADATKPVDVAALHSGVYVVRTTNGVITKIVK | 0.0831
40 | HMAEATATVTASEMVVRSGPSSSYSVLGSLEKGTVVTVLAASDGIAKISYKGNTGYARIVDMELNSA | 0.37
41 | HMAEDDAVQKAVREAVAESADAVADYKAGSERALNFIVGVVMKKTRGKASPGEVHRLVKAEVEK | 0.143
42 | HMAEDLRTLDGIDEDLLRDLAQAGITTRDGLAELSIDELREITGVEPGEAEKIILAARAHWFETDE | -1.19
43 | HMAEEGEQAASNTAAQAEDRAAELAAAGEKGKQITKTLVAEFGIPKNEAYRLALDAVAAVKAER | -0.427
44 | HMAEEPLRIWTDLQGRSIEASFIKFSGNNIVIKMKSGRDYEVARSLFSPGDQKYLSDLKKSTPE | -0.0706
45 | HMAEERVLSVPQSLAGERLDAALASLMPDYSRSRLASWIKEGLVTVDGAGAMPKQKLWGGETLRVQAQPT | 0.0973
46 | HMAEKAVELTENEKAIQTILSNGALEIGELKTKLELSGKQWDVALKGLAKHGITQVSKVEGVVTVGL | 0.124
47 | HMAEKGIGRVNADWLNMRTSPGGEVLTVLKQGTELQVIGRSGSWLEVQHGNEQGYVSSRYITIQP | 0.132
48 | HMAEKVIVVADSITVGELAEKLNLPVTNLIGELFKNGIVSTINQRIDFETASIIVEELGLDVELERK | -0.96
49 | HMAELNLPVRKIGGEDYYYRQVKKKETIYGISKELGITKEDIIKYNPSVASGLQRNQILYFPVKDFK | 0.322
50 | HMAELVISVKADGTIHYQDRQLTKEALAAVLETRPEALLNLYVDEKAPFEAFVGVVDIARLKRGGHFVIST | -0.947
51 | HMAENPAYTKGVVNRLYKIRATPYYSYSYNVDQKTYEGRGKQYGEYENLHIGDTITVYYQRSNPSNSEA | -0.112
52 | HMAEPIEKIIIEGNQRIEALTIQSYLLLRVGEPFNRQLMNQTLKSLYATGYFSDVAVTRVSSSLLVK | -0.0595
53 | HMAEPLEIGDTVRIIDGFYGGEIGVISELVNPDAKNAEFEQVRVRLDQDTELALPIHNVERVRL | -0.0894
54 | HMAEPRVQEVYFEFDGKQVEAGQVVSLIEQAYKNEGHQIGRIKDLKVYINSEEGKAYYVINGDDGEGKYIE | -0.67
55 | HMAESLHVTAAALFEGRAMLGIDGSRRLLRVGETSPEGVKLVSATAREAVIEIDGRRQTLAPGRDT | 0.0589
